From IntAct's records for PubMed 23559066

B1: Autophagy-related protein 36 (Saccharomyces cerevisiae), P46983 (parent)
chain: MASVNNYQVDCGSRSARIQPRINNGIHDEESLFEVLELSEEEFELDFHRLKSFNDVRVINNPDLSPECTNTAISRDETLESASSAFEVPSDEIAILSISSDSNKNSPPSEQPAPALRNIRSSSNSDRIDEWCLGSHLFNELHQNVPQSSDGVNHGFPVYSFKERELYTSAKLKKLTNAQRIAVQKLSRDLYPILRTCYREKTRRQLLTYHHERIFDDIPSFFPQRDFIFNYYSMPLEFDRLSDVDIDSSSRSRFTDESTGETLNRSPSAASSSLENTSWFGWTLLSRFLDREW
partner: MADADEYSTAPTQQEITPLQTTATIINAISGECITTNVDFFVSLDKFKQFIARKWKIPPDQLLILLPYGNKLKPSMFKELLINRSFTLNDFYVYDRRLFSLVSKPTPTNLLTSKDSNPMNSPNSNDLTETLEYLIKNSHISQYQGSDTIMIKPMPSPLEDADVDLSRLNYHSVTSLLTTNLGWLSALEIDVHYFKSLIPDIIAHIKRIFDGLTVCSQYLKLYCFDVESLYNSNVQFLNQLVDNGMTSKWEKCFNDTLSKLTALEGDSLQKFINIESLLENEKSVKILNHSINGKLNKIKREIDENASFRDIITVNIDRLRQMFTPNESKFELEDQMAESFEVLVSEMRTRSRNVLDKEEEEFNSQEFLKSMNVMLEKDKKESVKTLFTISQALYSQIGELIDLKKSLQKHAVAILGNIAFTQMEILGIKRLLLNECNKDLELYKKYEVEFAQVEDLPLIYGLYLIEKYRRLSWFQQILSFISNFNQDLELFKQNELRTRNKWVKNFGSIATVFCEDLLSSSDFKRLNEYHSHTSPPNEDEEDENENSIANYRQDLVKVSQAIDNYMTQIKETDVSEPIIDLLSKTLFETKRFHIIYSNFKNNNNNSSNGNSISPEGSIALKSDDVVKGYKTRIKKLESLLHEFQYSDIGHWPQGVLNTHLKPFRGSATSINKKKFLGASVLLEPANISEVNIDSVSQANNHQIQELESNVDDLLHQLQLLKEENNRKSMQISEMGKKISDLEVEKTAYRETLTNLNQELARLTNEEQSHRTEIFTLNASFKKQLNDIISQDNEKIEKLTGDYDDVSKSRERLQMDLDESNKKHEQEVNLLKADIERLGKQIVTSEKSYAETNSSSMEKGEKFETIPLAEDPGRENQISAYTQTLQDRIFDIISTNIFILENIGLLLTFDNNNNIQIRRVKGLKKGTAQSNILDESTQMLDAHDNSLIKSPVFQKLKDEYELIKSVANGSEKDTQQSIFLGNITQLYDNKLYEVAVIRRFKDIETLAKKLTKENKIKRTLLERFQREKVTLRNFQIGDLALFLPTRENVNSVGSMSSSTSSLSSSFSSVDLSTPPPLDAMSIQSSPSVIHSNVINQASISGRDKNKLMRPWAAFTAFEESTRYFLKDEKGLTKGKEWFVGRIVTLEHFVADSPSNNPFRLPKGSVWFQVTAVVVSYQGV
B2: Autophagy-related protein 32 (Saccharomyces cerevisiae), P40458 (parent)
chain: MVLEYQQREGKGSSSKSMPPDSSSTTIHTCSEAQTGEDKGLLDPHLSVLELLSKTGHSPSPMGQNLVTSIDISGNHNVNDSISGSWQAIQPLDLGASFIPERCSSQTTNGSILSSSDTSEEEQELLQAPAADIINIIKQGQEGANVVSPSHPFKQLQKIISLPLPGKEKTPFNEQDDDGDEDEAFEEDSVTITKSLTSSTNSFVMPKLSLTQKNPVFRLLILGRTGSSFYQSIPKEYQSLFELPKYHDSATFPQYTGIVIIFQELREMVSLLNRIVQYSQGKPVIPICQPGQVIQVKNVLKSFLRNKLVKLLFPPVVVTNKRDLKKMFQRLQDLSLEYGEDVNEEDNDDEAIHTKSRSYCRNKKAENSKKKSPKSNKKPKRKKQKFFTSWFTWGISITIGISFGCCVTYFVTAAYEHQTVKSLSLRPSILASLLSLDSSSDTINTPATASPSSTEQFLWFDKGTLQINFHSDGFIMKSLTIIKETWGKMNTFVLHALSKPLKFLENLNKSSEFSIDESNRILALGYILL
partner: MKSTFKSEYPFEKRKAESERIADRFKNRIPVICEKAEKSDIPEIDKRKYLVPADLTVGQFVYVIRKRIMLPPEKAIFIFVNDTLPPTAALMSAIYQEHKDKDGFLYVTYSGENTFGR
B3: Autophagy-related protein 36 (Saccharomyces cerevisiae), P46983 (parent)
chain: B1 chain
partner: B2 partner
B4: Autophagy-related protein 32 (Saccharomyces cerevisiae), P40458 (parent)
chain: B2 chain
partner: B1 partner

Variants of: B1
Conditions: with atg11_yeast ATG11, Q12527

Variant | effect of a mutation on the interaction
MASVNNYQVDCGSRSARIQPRINNGIHDEESLFEVLELSEEEFELDFHRLKSFNDVRVINNPDLSPECTNTAISRDETLESASSAFEVPSDEIAILAISSDSNKNSPPSEQPAPALRNIRSSSNSDRIDEWCLGSHLFNELHQNVPQSSDGVNHGFPVYSFKERELYTSAKLKKLTNAQRIAVQKLSRDLYPILRTCYREKTRRQLLTYHHERIFDDIPSFFPQRDFIFNYYSMPLEFDRLSDVDIDSSSRSRFTDESTGETLNRSPSAASSSLENTSWFGWTLLSRFLDREW [S97A] | disrupting interaction

Variants of: B2
Conditions: with atg8_yeast ATG8, P38182

Variant | effect of a mutation on the interaction
MVLEYQQREGKGSSSKSMPPDSSSTTIHTCSEAQTGEDKGLLDPHLSVLELLSKTGHSPSPMGQNLVTSIDISGNHNVNDAIAGAWQAIQPLDLGASFIPERCSSQTTNGSILSSSDTSEEEQELLQAPAADIINIIKQGQEGANVVSPSHPFKQLQKIISLPLPGKEKTPFNEQDDDGDEDEAFEEDSVTITKSLTSSTNSFVMPKLSLTQKNPVFRLLILGRTGSSFYQSIPKEYQSLFELPKYHDSATFPQYTGIVIIFQELREMVSLLNRIVQYSQGKPVIPICQPGQVIQVKNVLKSFLRNKLVKLLFPPVVVTNKRDLKKMFQRLQDLSLEYGEDVNEEDNDDEAIHTKSRSYCRNKKAENSKKKSPKSNKKPKRKKQKFFTSWFTWGISITIGISFGCCVTYFVTAAYEHQTVKSLSLRPSILASLLSLDSSSDTINTPATASPSSTEQFLWFDKGTLQINFHSDGFIMKSLTIIKETWGKMNTFVLHALSKPLKFLENLNKSSEFSIDESNRILALGYILL [S81A;S83A;S85A] | disrupting interaction

Variants of: B3
Conditions: with atg8_yeast ATG8, P38182

Variant | effect of a mutation on the interaction
MASVNNYQVDCGSRSARIQPRINNGIHDEESLAEVAELSEEEFELDFHRLKSFNDVRVINNPDLSPECTNTAISRDETLESASSAFEVPSDEIAILSISSDSNKNSPPSEQPAPALRNIRSSSNSDRIDEWCLGSHLFNELHQNVPQSSDGVNHGFPVYSFKERELYTSAKLKKLTNAQRIAVQKLSRDLYPILRTCYREKTRRQLLTYHHERIFDDIPSFFPQRDFIFNYYSMPLEFDRLSDVDIDSSSRSRFTDESTGETLNRSPSAASSSLENTSWFGWTLLSRFLDREW [F33A;L36A] | disrupting interaction

Variants of: B3
Conditions: with atg8_yeast ATG8, P38182
Remark: another data set of the same source

Variant | effect of a mutation on the interaction
MASVNNYQVDCGSRSARIQPRINNGIHDEEALFEVLELSEEEFELDFHRLKSFNDVRVINNPDLSPECTNTAISRDETLESASSAFEVPSDEIAILSISSDSNKNSPPSEQPAPALRNIRSSSNSDRIDEWCLGSHLFNELHQNVPQSSDGVNHGFPVYSFKERELYTSAKLKKLTNAQRIAVQKLSRDLYPILRTCYREKTRRQLLTYHHERIFDDIPSFFPQRDFIFNYYSMPLEFDRLSDVDIDSSSRSRFTDESTGETLNRSPSAASSSLENTSWFGWTLLSRFLDREW [S31A] | disrupting interaction

Variants of: B4
Conditions: with atg11_yeast ATG11, Q12527

Variant | effect of a mutation on the interaction
MVLEYQQREGKGSSSKSMPPDSSSTTIHTCSEAQTGEDKGLLDPHLSVLELLSKTGHSPSPMGQNLVTSIDISGNHNVNDSISGSWQAIQPLDLGASFIPERCSSQTTNGSILASSDTAEEEQELLQAPAADIINIIKQGQEGANVVSPSHPFKQLQKIISLPLPGKEKTPFNEQDDDGDEDEAFEEDSVTITKSLTSSTNSFVMPKLSLTQKNPVFRLLILGRTGSSFYQSIPKEYQSLFELPKYHDSATFPQYTGIVIIFQELREMVSLLNRIVQYSQGKPVIPICQPGQVIQVKNVLKSFLRNKLVKLLFPPVVVTNKRDLKKMFQRLQDLSLEYGEDVNEEDNDDEAIHTKSRSYCRNKKAENSKKKSPKSNKKPKRKKQKFFTSWFTWGISITIGISFGCCVTYFVTAAYEHQTVKSLSLRPSILASLLSLDSSSDTINTPATASPSSTEQFLWFDKGTLQINFHSDGFIMKSLTIIKETWGKMNTFVLHALSKPLKFLENLNKSSEFSIDESNRILALGYILL [S114A;S119A] | disrupting interaction
